These are literature values, as cited in publication PMC11591972.

The series addresses Vm24 (Vaejovis mexicanus smithi) (UniProt P0DJ31).
Chain of UniProt P0DJ31 (P0DJ31 whole entry): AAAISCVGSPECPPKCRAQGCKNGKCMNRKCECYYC

The term Kd denotes a measure of binding affinity in units of concentration. For Kv1.3 (from UniProt P22001), the Kd was 3 pM.
